Data as given in patent US20220089722A1 (NANTONG YICHEN BIOPHARMA, published 2022).

Key:
[1] = molecular target: MICA on PANC-1, BXPC-3 or K562 cells (UniProt Q29983 24-383, limits assumed); test: cell-based or functional assay
[2] = molecular target: T1, CD19 on NALM-6 cells (UniProt P15391 20-556, limits assumed); test: cell-based or functional assay
T1 sequence (looked up): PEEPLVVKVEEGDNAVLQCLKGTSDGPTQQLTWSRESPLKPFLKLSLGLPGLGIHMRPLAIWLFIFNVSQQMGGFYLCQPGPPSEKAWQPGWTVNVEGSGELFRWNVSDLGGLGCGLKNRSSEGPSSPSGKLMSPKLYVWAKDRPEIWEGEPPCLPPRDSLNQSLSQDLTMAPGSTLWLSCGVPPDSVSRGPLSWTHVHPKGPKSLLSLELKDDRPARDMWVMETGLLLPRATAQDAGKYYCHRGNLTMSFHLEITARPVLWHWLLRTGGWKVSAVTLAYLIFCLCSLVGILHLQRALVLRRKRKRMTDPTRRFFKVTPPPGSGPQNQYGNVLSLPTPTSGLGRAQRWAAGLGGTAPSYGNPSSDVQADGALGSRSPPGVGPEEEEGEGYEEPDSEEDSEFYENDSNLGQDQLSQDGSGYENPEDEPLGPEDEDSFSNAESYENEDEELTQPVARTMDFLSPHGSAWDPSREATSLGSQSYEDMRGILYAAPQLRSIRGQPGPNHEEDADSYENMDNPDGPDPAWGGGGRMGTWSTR

Sequence of MICA on PANC-1, BXPC-3 or K562 cells (Q29983 24-383 limits assumed): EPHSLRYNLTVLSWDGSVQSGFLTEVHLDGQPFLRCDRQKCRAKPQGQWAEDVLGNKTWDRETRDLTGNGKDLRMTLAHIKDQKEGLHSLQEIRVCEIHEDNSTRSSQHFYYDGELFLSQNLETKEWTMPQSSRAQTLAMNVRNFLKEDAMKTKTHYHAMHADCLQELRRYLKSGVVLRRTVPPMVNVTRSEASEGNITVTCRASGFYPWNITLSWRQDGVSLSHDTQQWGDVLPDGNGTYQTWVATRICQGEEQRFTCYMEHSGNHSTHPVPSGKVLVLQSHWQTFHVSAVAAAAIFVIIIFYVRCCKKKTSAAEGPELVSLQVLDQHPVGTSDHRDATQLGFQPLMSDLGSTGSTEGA

B1: IgFD-37(anti-CD3/MICA) (Fc fusion)
chain 1: EVQLVESGGGLVQPGGSLRLSCAASGFTFNTYAMNWVRQAPGKGLEWVARIRSKYNNYATYYADSVKDRFTISRDDSKNTLYLQMNSLRAEDTAVYYCVRHGNFGNSYVSWFAYWGQGTLVTVSSASTKGPSVFPLAPSSKSTSGGTAALGCLVKDYFPEPVTVSWNSGALTSGVHTFPAVLQSSGLYSLSSVVTVPSSSLGTQTYICNVNHKPSNTKVDKKVEPKSCDKTHTCPPCPAPPVAGPSVFLFPPKPKDTLMISRTPEVTCVVVDVSHEDPEVKFNWYVDGVEVHNAKTKPREEQYNSTYRVVSVLTVLHQDWLNGKEYKCKVSNKGLPSSIEKTISKAKGQPREPQVYTLPPCRDELTKNQVSLWCLVKGFYPSDIAVEWESNGQPENNYKTTPPVLDSDGSFFLYSKLTVDKSRWQQGNVFSCSVMHEALHNHYTQKSLSLSPGKGGSGAKLAALKAKLAALKGGGGSFLNSLFNQEVQIPLTESYCGPCPKNWICYKNNCYQFFDESKNWYESQASCMSQNASLLKVYSKEDQDLLKLVKSYHWMGLVHIPTNGSWQWEDGSILSPNLLTIIEMQKGDCALYASSFKGYIENCSTPNTYICMQRTV
chain 2: QAVVTQEPSLTVSPGGTVTLTCRSSTGAVTTSNYANWVQQKPDHLFRGLIGGTNKRAPGTPARFSGSLLGDKAALTISGAQPEDEAEYYCALWYSNLWVFGGGTKLTVLKRTVAAPSVFIFPPSDEQLKSGTASVVCLLNNFYPREAKVQWKVDNALQSGNSQESVTEQDSKDSTYSLSSTLTLSKADYEKHKVYACEVTHQGLSSPVTKSFNRGECDKTHTCPPCPAPPVAGPSVFLFPPKPKDTLMISRTPEVTCVVVDVSHEDPEVKFNWYVDGVEVHNAKTKPREEQYNSTYRVVSVLTVLHQDWLNGKEYKCKVSNKGLPSSIEKTISKAKGQPREPQVCTLPPSRDELTKNQVSLSCAVKGFYPSDIAVEWESNGQPENNYKTTPPVLDSDGSFFLVSKLTVDKSRWQQGNVFSCSVMHEALHNHYTQKSLSLSPGKGGSGAKLAALKAKLAALKGGGGSFLNSLFNQEVQIPLTESYCGPCPKNWICYKNNCYQFFDESKNWYESQASCMSQNASLLKVYSKEDQDLLKLVKSYHWMGLVHIPTNGSWQWEDGSILSPNLLTIIEMQKGDCALYASSFKGYIENCSTPNTYICMQRTV
With B1 the “Promotion for the specific killing effect of PBMCs on target cells by heterodimers (EC50, pM); K562 cells, LDH assay” value [1] was 1090 pM and the “Promotion for the specific killing effect of PBMCs on target cells by heterodimers (EC50, pM); PANC-1 cells, LDH assay” value [1] was 676 pM.

B2: IgFD-6(anti-CD19/CD3) (bispecific antibody, human IgG1, kappa)
chain 1: EVQLVESGGGLVQPGGSLRLSCAASGFTFNTYAMNWVRQAPGKGLEWVARIRSKYNNYATYYADSVKDRFTISRDDSKNTLYLQMNSLRAEDTAVYYCVRHGNFGNSYVSWFAYWGQGTLVTVSSASTKGPSVFPLAPSSKSTSGGTAALGCLVKDYFPEPVTVSWNSGALTSGVHTFPAVLQSSGLYSLSSVVTVPSSSLGTQTYICNVNHKPSNTKVDKKVEPKSCDKTHTCPPCPAPPVAGPSVFLFPPKPKDTLMISRTPEVTCVVVDVSHEDPEVKFNWYVDGVEVHNAKTKPREEQYNSTYRVVSVLTVLHQDWLNGKEYKCKVSNKGLPSSIEKTISKAKGQPREPQVYTLPPSRDELTKNQVSLTCLVKGFYPSDIAVEWESNGQPENNYKTTPPVLDSDGSFFLYSKLTVDKSRWQQGNVFSCSVMHEALHNHYTQKSLSLSPGKSGGGGSGGGGSGGGGSDIQMTQTTSSLSASLGDRVTISCRASQDISKYLNWYQQKPDGTVKLLIYHTSRLHSGVPSRFSGSGSGTDYSLTISNLEQEDIATYFCQQGNTLPYTFGGGTKLEITGGGGSGGGGSGGGGSEVKLQESGPGLVAPSQSLSVTCTVSGVSLPDYGVSWIRQPPRKGLEWLGVIWGSETTYYNSALKSRLTIIKDNSKSQVFLKMNSLQTDDTAIYYCAKHYYYGGSYAMDYWGQGTSVTVSS
chain 2: QAVVTQEPSLTVSPGGTVTLTCRSSTGAVTTSNYANWVQQKPDHLFRGLIGGTNKRAPGTPARFSGSLLGDKAALTISGAQPEDEAEYYCALWYSNLWVFGGGTKLTVLKRTVAAPSVFIFPPSDEQLKSGTASVVCLLNNFYPREAKVQWKVDNALQSGNSQESVTEQDSKDSTYSLSSTLTLSKADYEKHKVYACEVTHQGLSSPVTKSFNRGECDKTHTCPPCPAPPVAGPSVFLFPPKPKDTLMISRTPEVTCVVVDVSHEDPEVKFNWYVDGVEVHNAKTKPREEQYNSTYRVVSVLTVLHQDWLNGKEYKCKVSNKGLPSSIEKTISKAKGQPREPQVYTLPPSRDELTKNQVSLTCLVKGFYPSDIAVEWESNGQPENNYKTTPPVLDSDGSFFLYSKLTVDKSRWQQGNVFSCSVMHEALHNHYTQKSLSLSPGK
For B2, the “Promotion for the specific killing effect of PBMCs on target cells by heterodimers (EC50, pM); Nalm-6 cells” value [2] was 14.9 pM.

B3: IgFD-7(anti-CD19/CD3) (bispecific antibody, human IgG1, kappa)
chain 1: EVQLVESGGGLVQPGGSLRLSCAASGFTFNTYAMNWVRQAPGKGLEWVARIRSKYNNYATYYADSVKDRFTISRDDSKNTLYLQMNSLRAEDTAVYYCVRHGNFGNSYVSWFAYWGQGTLVTVSSASTKGPSVFPLAPSSKSTSGGTAALGCLVKDYFPEPVTVSWNSGALTSGVHTFPAVLQSSGLYSLSSVVTVPSSSLGTQTYICNVNHKPSNTKVDKKVEPKSCDKTHTCPPCPAPPVAGPSVFLFPPKPKDTLMISRTPEVTCVVVDVSHEDPEVKFNWYVDGVEVHNAKTKPREEQYNSTYRVVSVLTVLHQDWLNGKEYKCKVSNKGLPSSIEKTISKAKGQPREPQVYTLPPSRDELTKNQVSLTCLVKGFYPSDIAVEWESNGQPENNYKTTPPVLDSDGSFFLYSKLTVDKSRWQQGNVFSCSVMHEALHNHYTQKSLSLSPGK
chain 2: QAVVTQEPSLTVSPGGTVTLTCRSSTGAVTTSNYANWVQQKPDHLFRGLIGGTNKRAPGTPARFSGSLLGDKAALTISGAQPEDEAEYYCALWYSNLWVFGGGTKLTVLKRTVAAPSVFIFPPSDEQLKSGTASVVCLLNNFYPREAKVQWKVDNALQSGNSQESVTEQDSKDSTYSLSSTLTLSKADYEKHKVYACEVTHQGLSSPVTKSFNRGECDKTHTCPPCPAPPVAGPSVFLFPPKPKDTLMISRTPEVTCVVVDVSHEDPEVKFNWYVDGVEVHNAKTKPREEQYNSTYRVVSVLTVLHQDWLNGKEYKCKVSNKGLPSSIEKTISKAKGQPREPQVYTLPPSRDELTKNQVSLTCLVKGFYPSDIAVEWESNGQPENNYKTTPPVLDSDGSFFLYSKLTVDKSRWQQGNVFSCSVMHEALHNHYTQKSLSLSPGKSGGGGSGGGGSGGGGSDIQMTQTTSSLSASLGDRVTISCRASQDISKYLNWYQQKPDGTVKLLIYHTSRLHSGVPSRFSGSGSGTDYSLTISNLEQEDIATYFCQQGNTLPYTFGGGTKLEITGGGGSGGGGSGGGGSEVKLQESGPGLVAPSQSLSVTCTVSGVSLPDYGVSWIRQPPRKGLEWLGVIWGSETTYYNSALKSRLTIIKDNSKSQVFLKMNSLQTDDTAIYYCAKHYYYGGSYAMDYWGQGTSVTVSS
With B3 the “Promotion for the specific killing effect of PBMCs on target cells by heterodimers (EC50, pM); Nalm-6 cells” value [2] was 11.7 pM.
